Source: EP4792830A2 (Pfizer Inc., dated 2026)
Where two headings read alike, the source gives them in different places.

T1: rabTFPI K1K2 (rabbit, limits assumed)
T1 construct: also called Rabbit TFPI K1K2
T1 chain: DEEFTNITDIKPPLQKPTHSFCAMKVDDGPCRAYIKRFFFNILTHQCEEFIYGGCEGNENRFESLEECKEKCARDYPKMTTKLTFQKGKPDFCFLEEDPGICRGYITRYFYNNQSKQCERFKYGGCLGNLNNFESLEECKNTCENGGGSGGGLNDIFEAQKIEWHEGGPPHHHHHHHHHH


Legend:
cynTFPI K1K2 = target: T2, cynTFPI K1K2 (cynomolgus monkey); experiment: SPR, antibody ligand, TFPI analyte
T2 construct: also called Cynomolgus Monkey TFPI K1K2; cyno TFPI K1K2

rabTFPI K1K2 [1] = target: T1, rabTFPI K1K2; experiment: SPR, antibody ligand, TFPI analyte
rabTFPI K1K2 [2] = target: T1, rabTFPI K1K2; experiment: ELISA, TFPI on streptavidin plate
rabTFPI K1K2 [3] = target: T1, rabTFPI K1K2; experiment: SPR, antibody ligand, TFPI analyte

| koff (cynTFPI K1K2) [s⁻¹] | Kd (rabTFPI K1K2 [1]) [nM] | koff (rabTFPI K1K2 [1]) [s⁻¹] | kon (rabTFPI K1K2 [1]) [M⁻¹ s⁻¹] | EC50 (rabTFPI K1K2 [2]) [nM] | Kd (rabTFPI K1K2 [3]) [nM] | koff (rabTFPI K1K2 [3]) [s⁻¹] | kon (rabTFPI K1K2 [3]) [M⁻¹ s⁻¹] | Binder |
| --- | --- | --- | --- | --- | --- | --- | --- | --- |
| 0.0306 | 1.69 | 0.00123 | 730000 | – | – | – | – | 2A8 (antibody, human IgG1, lambda, V domains shown) VH: QVQLVESGGGLVQPGGSLRLSCAASGFTFRSYGMSWVRQAPGKGLEWVSSIRGSSSSTYYADSVKGRFTISRDNSKNTLYLQMNSLRAEDTAVYYCARKYRYWFDYWGQGTLVTVSS VL: DIELTQPPSVSVAPGQTARISCSGDNLRNYYAHWYQQKPGQAPVVVIYYDNNRPSGIPERFSGSNSGNTATLTISGTQAEDEADYYCQSWDDGVPVFGGGTKLTVLG |
| – | – | – | – | 0.068 | 0.63 | 0.00126 | 2.01e+06 | mu-hu 4D8 chimera (antibody, human IgG1, kappa, Mouse variable regions on human IgG1 3M and human kappa constant regions; also called hu-mu 4D8 chimera; mouse-human chimeric antibody 4D8) heavy: EVLLQQSGPELVKPGASVKIPCKASGYTFTDYNLDWVKQSHGKSLEWIGDINPINGATLYNQKFKGKATLTVDQSSSTAYMELRSLTSEDTAVYYCSIYYGDYDAMDYWGQGASVTVSSASTKGPSVFPLAPSSKSTSGGTAALGCLVKDYFPEPVTVSWNSGALTSGVHTFPAVLQSSGLYSLSSVVTVPSSSLGTQTYICNVNHKPSNTKVDKKVEPKSCDKTHTCPPCPAPEAAGAPSVFLFPPKPKDTLMISRTPEVTCVVVDVSHEDPEVKFNWYVDGVEVHNAKTKPREEQYNSTYRVVSVLTVLHQDWLNGKEYKCKVSNKALPAPIEKTISKAKGQPREPQVYTLPPSREEMTKNQVSLTCLVKGFYPSDIAVEWESNGQPENNYKTTPPVLDSDGSFFLYSKLTVDKSRWQQGNVFSCSVMHEALHNHYTQKSLSLSPG light: DIVMTQSHKFMSTSVGDRVSITCKASQDVHTAVAWYQQKPGQSPRLLIYWASTRHTGVPDRFTGCGSGTDYTLTISSVQAEDLALYYCQQHYTTPYTFGGGTKLEMKRTVAAPSVFIFPPSDEQLKSGTASVVCLLNNFYPREAKVQWKVDNALQSGNSQESVTEQDSKDSTYSLSSTLTLSKADYEKHKVYACEVTHQGLSSPVTKSFNRGEC |
